Residue numbers refer to the chain shown, from its start.
B1: anti-DLL3 trispecific protein 2C09 (protein, part only; not given: anti-CD3 and anti-albumin domains, part only)
chain, part: EVQLVESGGGLVQPGGSLTLSCVPSGSTSNINAMGWYRRAPGKQRELPAGISSDGTKIYADSAKVPFTITRDNAKNSVYLQMNSLRAEDTAVYYCYYFRTVSGTSMRYWGQGTLVTVSSGGGGSGGGSGGGGSGGGSHHHHHH
B2: anti-DLL3 trispecific protein 2H04 (protein, part only; not given: anti-CD3 fragment and anti-albumin domain, part only)
chain, part: EVQLVESGGGLVQPGGSLTLSCVASGSTSSINAMGWYRRAPGKQRELVAGISSDTSKVYADSVKGRFTISRDNAKNSVYLQMNSLRAEDTAVYYCYYFRTVSGSYMRYWGQGTLVTVSSGGGGSGGGSGGGGSGGGSHHHHHH
B3: anti-DLL3 trispecific protein 1B010 (protein, part only; not given: CD3 fragment and albumin sdAb, part only)
chain, part: B2 chain, part with S30R, T55G, V101K, Y105S
B4: anti-DLL3 trispecific protein 2D010 (protein, part only; not given: CD3 binder and albumin binder, part only)
chain, part: B2 chain, part with T55G, V101K, Y105S
B5: anti-DLL3 trispecific protein 1A010 (protein, part only; not given: anti-CD3 fragment and anti-albumin domain, part only)
chain, part: B2 chain, part with M34Y, T55G, S102Y, Y105S
B6: anti-DLL3 trispecific protein 1G01 (protein, part only; not given: CD3 binder and albumin binder, part only)
chain, part: B2 chain, part with G35A, T55G, D61E, S104A, Y105S
B7: anti-DLL3 trispecific protein 1D06 (protein, part only; not given: anti-CD3 fragment and anti-albumin sdAb, part only)
chain, part: B2 chain, part with T55N, S102H, Y105S
B8: anti-DLL3 trispecific protein 1A03 (protein, part only; not given: CD3 fragment and albumin sdAb, part only)
chain, part: B2 chain, part with G35A, T55G, Y105S, M106S
B9: anti-DLL3 trispecific protein 2B05 (protein, part only; not given: anti-CD3 fragment and anti-albumin domain, part only)
chain, part: B2 chain, part with S27T, T55G, S56T, R99H, Y105S
B10: anti-DLL3 trispecific protein 2B02 (protein, part only; not given: CD3 binder and albumin binder, part only)
chain, part: B2 chain, part with G35A, T55G, V101K, Y105S
B11: anti-DLL3 trispecific protein 2G07 (protein, part only; not given: anti-CD3 and anti-albumin domains, part only)
chain, part: B2 chain, part with G35A, T55G, S102Q, Y105S
B12: anti-DLL3 trispecific protein 1E02 (protein, part only; not given: anti-CD3 fragment and anti-albumin sdAb, part only)
chain, part: B2 chain, part with S27Q, T55G, K57Q, V101K, Y105S
B13: anti-DLL3 trispecific protein 1C07 (protein, part only; not given: anti-CD3 fragment and anti-albumin sdAb, part only)
chain, part: B2 chain, part with G35A, T55G, Y105S
B14: anti-DLL3 trispecific protein 2D06 (protein, part only; not given: anti-CD3 and anti-albumin domains, part only)
chain, part: B2 chain, part with T55G, A60S, Y105S, M106S
B15: anti-DLL3 trispecific protein 2C06 (protein, part only; not given: CD3 binder and albumin binder, part only)
chain, part: B2 chain, part with S29N, T55G, A60K, F98Y, Y105S
B16: anti-DLL3 trispecific protein 2D03 (protein, part only; not given: anti-CD3 and anti-albumin domains, part only)
chain, part: B2 chain, part with S27K, T55G, S104V, Y105S
B17: anti-DLL3 trispecific protein 2B012 (protein, part only; not given: anti-CD3 and anti-albumin domains, part only)
chain, part: B2 chain, part with S27T, T55G, A60N, S102R, Y105S
B18: anti-DLL3 trispecific protein 1E07 (protein, part only; not given: anti-CD3 fragment and anti-albumin sdAb, part only)
chain, part: B2 chain, part with G35A, T55G, A60N, S102R, Y105S, M106Q
B19: anti-DLL3 trispecific protein 1G011 (protein, part only; not given: CD3 binder and albumin binder, part only)
chain, part: B2 chain, part with G35A, T55G, R99K, Y105S
B20: anti-DLL3 trispecific protein 1A01 (protein, part only; not given: anti-CD3 and anti-albumin domains, part only)
chain, part: B2 chain, part with S27F, T55G, K57F, T100H, Y105S
B21: anti-DLL3 trispecific protein 1F010 (protein, part only; not given: anti-CD3 fragment and anti-albumin sdAb, part only)
chain, part: B2 chain, part with S30R, T55G, A60K, Y105S
B22: anti-DLL3 trispecific protein 2H010 (protein, part only; not given: CD3 fragment and albumin sdAb, part only)
chain, part: B2 chain, part with V48A, T55G, V58L, Y105S
B23: anti-DLL3 trispecific protein 2C04 (protein, part only; not given: anti-CD3 fragment and anti-albumin sdAb, part only)
chain, part: B2 chain, part with I31R, T55G, V58L, S102L, Y105S
B24: anti-DLL3 trispecific protein 2F09 (protein, part only; not given: anti-CD3 fragment and anti-albumin domain, part only)
chain, part: B2 chain, part with G35A, T55G, V58L, Y105S
B25: anti-DLL3 trispecific protein 3A09 (protein, part only; not given: CD3 binder and albumin binder, part only)
chain, part: EVQLVESGGGLVQPGGSLTLSCAASGSSVSFLSMAWYRQAPGKKRELVAGISADGSVDYIDSVKGRFTISRDNAKNSVYLQMNSLRAEDTAVYYCYAYRWTTRYIYWGQGTLVTVSSGGGGSGGGSGGGGSGGGSHHHHHH
B26: anti-DLL3 trispecific protein 3A011 (protein, part only; not given: CD3 binder and albumin binder, part only)
chain, part: B25 chain, part with M34L, A53T, V57T, T101R, I105T
B27: anti-DLL3 trispecific protein 4D05 (protein, part only; not given: anti-CD3 fragment and anti-albumin domain, part only)
chain, part: B25 chain, part with V29S, V57T, D58V, Y104R, I105T
B28: anti-DLL3 trispecific protein 4E08 (protein, part only; not given: anti-CD3 fragment and anti-albumin sdAb, part only)
chain, part: B25 chain, part with S30K, A53T, V57T, R99K, I105T
B29: anti-DLL3 trispecific protein 3F011 (protein, part only; not given: anti-CD3 and anti-albumin domains, part only)
chain, part: B25 chain, part with A53T, V57T, T101R, I105T
B30: anti-DLL3 trispecific protein 4G011 (protein, part only; not given: anti-CD3 fragment and anti-albumin sdAb, part only)
chain, part: B25 chain, part with S30R, V57T, D61G, T101S, I105T
B31: anti-DLL3 trispecific protein 4C02 (protein, part only; not given: CD3 fragment and albumin sdAb, part only)
chain, part: B25 chain, part with S28K, V57T, D58T, Y104F, I105T
B32: anti-DLL3 trispecific protein 3B05 (protein, part only; not given: anti-CD3 and anti-albumin domains, part only)
chain, part: B25 chain, part with A23V, S30K, V57T, D58T, Y104R, I105T
B33: anti-DLL3 trispecific protein 4C06 (protein, part only; not given: CD3 fragment and albumin sdAb, part only)
chain, part: B25 chain, part with G26N, F31K, V57T, D58A, T101S, I105T
B34: anti-DLL3 trispecific protein 4B02 (protein, part only; not given: CD3 binder and albumin binder, part only)
chain, part: B25 chain, part with S28R, V57T, D58T, Y104F, I105T
B35: anti-DLL3 trispecific protein 4C010 (protein, part only; not given: CD3 binder and albumin binder, part only)
chain, part: B25 chain, part with S28K, L32M, V57T, Y104L, I105T
B36: anti-DLL3 trispecific protein 4D06 (protein, part only; not given: anti-CD3 fragment and anti-albumin sdAb, part only)
chain, part: B25 chain, part with S30K, A53P, V57T, I105R
B37: anti-DLL3 trispecific protein 3G09 (protein, part only; not given: CD3 fragment and albumin sdAb, part only)
chain, part: B25 chain, part with F31V, V57T, D61G, Y104T, I105T
B38: anti-DLL3 trispecific protein 4C03 (protein, part only; not given: CD3 fragment and albumin sdAb, part only)
chain, part: B25 chain, part with S28K, L32M, A53V, V57T, T101R, I105T
B39: anti-DLL3 trispecific protein 3B07 (protein, part only; not given: anti-CD3 fragment and anti-albumin sdAb, part only)
chain, part: B25 chain, part with S28R, V57T, D58T, I105T

target: biotinylated human DLL3 protein expressed as a human IgG1 fusion protein (human) (UniProt Q9NYJ7); assay: Octet BLI; biotinylated huDLL3-IgG1 fusion on streptavidin tips; single 50 nM; conditioned medium
Sequence (Q9NYJ7 other isoform, or with tags, fused parts or gaps): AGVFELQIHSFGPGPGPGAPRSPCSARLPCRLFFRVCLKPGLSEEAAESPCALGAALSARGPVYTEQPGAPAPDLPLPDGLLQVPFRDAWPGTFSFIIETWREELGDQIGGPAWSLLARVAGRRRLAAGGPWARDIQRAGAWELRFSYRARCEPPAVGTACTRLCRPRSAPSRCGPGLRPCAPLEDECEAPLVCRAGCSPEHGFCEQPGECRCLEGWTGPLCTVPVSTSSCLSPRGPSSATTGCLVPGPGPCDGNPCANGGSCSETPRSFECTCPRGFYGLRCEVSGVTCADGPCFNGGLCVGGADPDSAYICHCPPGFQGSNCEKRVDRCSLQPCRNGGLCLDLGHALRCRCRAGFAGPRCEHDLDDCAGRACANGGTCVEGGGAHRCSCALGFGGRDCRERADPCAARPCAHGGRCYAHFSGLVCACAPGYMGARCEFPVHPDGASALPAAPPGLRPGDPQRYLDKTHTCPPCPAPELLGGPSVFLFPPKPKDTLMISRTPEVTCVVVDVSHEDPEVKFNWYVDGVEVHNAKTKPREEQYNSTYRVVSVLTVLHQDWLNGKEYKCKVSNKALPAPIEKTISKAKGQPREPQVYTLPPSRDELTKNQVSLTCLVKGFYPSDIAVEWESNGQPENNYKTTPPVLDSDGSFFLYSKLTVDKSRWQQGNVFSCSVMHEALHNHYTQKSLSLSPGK

Row | Binder | Kd [nM]
1 | B1 | 6.4
2 | B2 | 6.3
3 | B3 | 6.8
4 | B4 | 7.3
5 | B5 | 6.5
6 | B6 | 6.6
7 | B7 | 6.8
8 | B8 | 6.3
9 | B9 | 7.4
10 | B10 | 6.6
11 | B11 | 6.5
12 | B12 | 7
13 | B13 | 7.1
14 | B14 | 6.6
15 | B15 | 6.7
16 | B16 | 6.8
17 | B17 | 7.3
18 | B18 | 7.1
19 | B19 | 6.8
20 | B20 | 7

Row | Binder | Kd [nM]
21 | B21 | 6.3
22 | B22 | 6.4
23 | B23 | 6.8
24 | B24 | 6.5
25 | B25 | 6.3
26 | B26 | 6.8
27 | B27 | 6.5
28 | B28 | 7.2
29 | B29 | 7.1
30 | B30 | 7.5
31 | B31 | 6.8
32 | B32 | 7.2
33 | B33 | 6.8
34 | B34 | 7.1
35 | B35 | 7
36 | B36 | 7.5
37 | B37 | 7.3
38 | B38 | 6.6
39 | B39 | 7.3

— US20200095340A1
